# Reference: the supplement of paper PMC9112550, “Optimization of the antimicrobial peptide Bac7 by deep mutational scanning” (BMC Biology, 2022)
# Test system: Escherichia coli TOP10
# Experiment: shrunken log2 fold change of peptide-encoding DNA abundance (4.5 h post-induction vs induction); higher = less antimicrobial activity (less host growth inhibition)
# Conditions: time post-induction: 4.5 h; library: site-saturation at positions 5, 18, 19, 20
# 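Note: peptides expressed intracellularly from a pBAD plasmid library in pooled LB shake-flask culture, induced with 0.3% L-arabinose, DNA abundance read by NGS, three biological replicates, DESeq2 with apeglm shrinkage.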
row,Sequence,shrunken log2 fold change
1,RRIRWRPPRLPRPRPRPKAAPRP,0.338
2,RRIRWRPPRLPRPRPRPKANPRP,0.51
3,RRIRWRPPRLPRPRPRPKCYPRP,-0.0376
4,RRIRWRPPRLPRPRPRPKFQPRP,-0.00693
5,RRIRWRPPRLPRPRPRPKGPPRP,3.65
6,RRIRWRPPRLPRPRPRPKHVPRP,0.254
7,RRIRWRPPRLPRPRPRPKHWPRP,0.4
8,RRIRWRPPRLPRPRPRPKKYPRP,-0.245
9,RRIRWRPPRLPRPRPRPKNIPRP,-0.159
10,RRIRWRPPRLPRPRPRPKPIPRP,0.477
11,RRIRWRPPRLPRPRPRPKPTPRP,0.0876
12,RRIRWRPPRLPRPRPRPKQAPRP,0.413
13,RRIRWRPPRLPRPRPRPKQDPRP,0.00878
14,RRIRWRPPRLPRPRPRPKSLPRP,-0.0933
15,RRIRWRPPRLPRPRPRPKTQPRP,0.0326
16,RRIRWRPPRLPRPRPRPKTSPRP,0.104
17,RRIRWRPPRLPRPRPRPKTWPRP,0.325
18,RRIRWRPPRLPRPRPRPKVTPRP,-0.165
19,RRIRWRPPRLPRPRPRPKYIPRP,-0.0755
20,RRIRWRPPRLPRPRPRPKYVPRP,-0.0314
21,RRIRWRPPRLPRPRPRPLCIPRP,-0.275
22,RRIRWRPPRLPRPRPRPLCYPRP,0.0105

row,Sequence,shrunken log2 fold change
1,RRIRWRPPRLPRPRPRPLEHPRP,0.165
2,RRIRWRPPRLPRPRPRPLEIPRP,0.299
3,RRIRWRPPRLPRPRPRPLFKPRP,-0.242
4,RRIRWRPPRLPRPRPRPLFVPRP,-0.076
5,RRIRWRPPRLPRPRPRPLGEPRP,0.224
6,RRIRWRPPRLPRPRPRPLGNPRP,-0.14
7,RRIRWRPPRLPRPRPRPLGPPRP,0.478
8,RRIRWRPPRLPRPRPRPLHKPRP,0.0164
9,RRIRWRPPRLPRPRPRPLKLPRP,-0.225
10,RRIRWRPPRLPRPRPRPLKPPRP,0.0915
11,RRIRWRPPRLPRPRPRPLMMPRP,0.0198
12,RRIRWRPPRLPRPRPRPLNEPRP,-0.0646
13,RRIRWRPPRLPRPRPRPLPNPRP,0.783
14,RRIRWRPPRLPRPRPRPLPWPRP,0.244
15,RRIRWRPPRLPRPRPRPLPYPRP,-0.192
16,RRIRWRPPRLPRPRPRPLSTPRP,0.383
17,RRIRWRPPRLPRPRPRPLSYPRP,-0.243
18,RRIRWRPPRLPRPRPRPLTKPRP,0.23
19,RRIRWRPPRLPRPRPRPLVNPRP,-0.0798
20,RRIRWRPPRLPRPRPRPLVPPRP,-0.000952
21,RRIRWRPPRLPRPRPRPLWMPRP,0.151
22,RRIRWRPPRLPRPRPRPLWSPRP,-0.13

row,Sequence,shrunken log2 fold change
1,RRIRWRPPRLPRPRPRPLYKPRP,-0.849
2,RRIRWRPPRLPRPRPRPMAMPRP,0.00646
3,RRIRWRPPRLPRPRPRPMANPRP,0.21
4,RRIRWRPPRLPRPRPRPMEIPRP,-0.0287
5,RRIRWRPPRLPRPRPRPMFAPRP,0.216
6,RRIRWRPPRLPRPRPRPMFSPRP,-0.0364
7,RRIRWRPPRLPRPRPRPMGGPRP,0.116
8,RRIRWRPPRLPRPRPRPMHDPRP,0.229
9,RRIRWRPPRLPRPRPRPMHFPRP,-0.00884
10,RRIRWRPPRLPRPRPRPMHLPRP,-0.317
11,RRIRWRPPRLPRPRPRPMHPPRP,0.224
12,RRIRWRPPRLPRPRPRPMHYPRP,-0.107
13,RRIRWRPPRLPRPRPRPMKFPRP,-0.278
14,RRIRWRPPRLPRPRPRPMKVPRP,0.138
15,RRIRWRPPRLPRPRPRPMLIPRP,0.157
16,RRIRWRPPRLPRPRPRPMLWPRP,0.0929
17,RRIRWRPPRLPRPRPRPMMNPRP,-0.238
18,RRIRWRPPRLPRPRPRPMPQPRP,0.178
19,RRIRWRPPRLPRPRPRPMPYPRP,-0.0164
20,RRIRWRPPRLPRPRPRPMRLPRP,0.905
21,RRIRWRPPRLPRPRPRPMRVPRP,1.03
22,RRIRWRPPRLPRPRPRPMRYPRP,-0.0679

row,Sequence,shrunken log2 fold change
1,RRIRWRPPRLPRPRPRPMSQPRP,0.0791
2,RRIRWRPPRLPRPRPRPMTEPRP,0.804
3,RRIRWRPPRLPRPRPRPMTLPRP,-0.0611
4,RRIRWRPPRLPRPRPRPMVVPRP,0.026
5,RRIRWRPPRLPRPRPRPMWAPRP,0.385
6,RRIRWRPPRLPRPRPRPMWCPRP,-0.166
7,RRIRWRPPRLPRPRPRPNAGPRP,-0.00207
8,RRIRWRPPRLPRPRPRPNCSPRP,-0.162
9,RRIRWRPPRLPRPRPRPNDLPRP,0.0302
10,RRIRWRPPRLPRPRPRPNDPPRP,-0.137
11,RRIRWRPPRLPRPRPRPNEMPRP,-0.078
12,RRIRWRPPRLPRPRPRPNFAPRP,0.29
13,RRIRWRPPRLPRPRPRPNFEPRP,0.00226
14,RRIRWRPPRLPRPRPRPNFSPRP,-0.305
15,RRIRWRPPRLPRPRPRPNGIPRP,0.0301
16,RRIRWRPPRLPRPRPRPNHRPRP,-0.0538
17,RRIRWRPPRLPRPRPRPNHSPRP,-0.409
18,RRIRWRPPRLPRPRPRPNKQPRP,0.103
19,RRIRWRPPRLPRPRPRPNLCPRP,0.114
20,RRIRWRPPRLPRPRPRPNMDPRP,0.0467
21,RRIRWRPPRLPRPRPRPNNDPRP,-0.213
22,RRIRWRPPRLPRPRPRPNPYPRP,-0.133

row,Sequence,shrunken log2 fold change
1,RRIRWRPPRLPRPRPRPNRMPRP,0.126
2,RRIRWRPPRLPRPRPRPNSRPRP,0.0524
3,RRIRWRPPRLPRPRPRPNTLPRP,-0.359
4,RRIRWRPPRLPRPRPRPNTNPRP,-0.294
5,RRIRWRPPRLPRPRPRPNTWPRP,0.245
6,RRIRWRPPRLPRPRPRPNWEPRP,-0.00663
7,RRIRWRPPRLPRPRPRPNWRPRP,0.184
8,RRIRWRPPRLPRPRPRPNYFPRP,-0.167
9,RRIRWRPPRLPRPRPRPPACPRP,0.531
10,RRIRWRPPRLPRPRPRPPDAPRP,0.5
11,RRIRWRPPRLPRPRPRPPEIPRP,-0.0659
12,RRIRWRPPRLPRPRPRPPETPRP,0.166
13,RRIRWRPPRLPRPRPRPPEVPRP,0.334
14,RRIRWRPPRLPRPRPRPPFAPRP,0.544
15,RRIRWRPPRLPRPRPRPPFLPRP,0.26
16,RRIRWRPPRLPRPRPRPPFMPRP,0.0466
17,RRIRWRPPRLPRPRPRPPHIPRP,0.696
18,RRIRWRPPRLPRPRPRPPIAPRP,2.1
19,RRIRWRPPRLPRPRPRPPIIPRP,-0.151
20,RRIRWRPPRLPRPRPRPPKYPRP,-0.163
21,RRIRWRPPRLPRPRPRPPLFPRP,0.42
